± gives the uncertainty stated by the source.

A short description of this series: self-splicing fitness, log relative to wild type (ln ratio); higher = more splicing; Tetrahymena group I intron in knt gene, E. coli kanamycin selection, DiMSum; sequences stand for … in CUCUCU…GGAGGGAAAAGUUAUCAGGCAUGCACCUGGUAGCUAGUCUUUAAACCAAUAGAUUGCAUCGGUUUAAAAGGCAAGACCGUCAAAUUGCGGGAAAGGGGUCAACAGCCGUUCAGUACCAAGUCUCAGGGGAAACUUUGAGAUGGCCUUGCAAAGGGUAUGGUAAUAAGCUGACGGACAUGGUCCUAACCACGCAGCCAAGUCCUAAGUCAACAGAUCUUCUGUUGAUAUGGAUGCAGUUCACAGACUAAAUGUCGGUCGGGGAAGAUGUAUUCUUCUCAUAAGAUAUAGUCGGACCUCUCCUUAAUGGGAGCUAGCGGAUGAAGUGAUGCAACACUGGAGCCGCUGGGAACUAAUUUGUAUGCGAAAGUAUAUUGAUUAGUUUUGGAGUACUCGUGGUCG
The essentials:
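Fitness was computed with DiMSum as the error-weighted combination of replicate fold changes, kanamycin versus none, each normalised to wild type. The library randomised all eight intron nucleotides of the P1ex region, with the intron placed in the knt kanamycin-resistance gene on pET-22b(+) in E. coli BL21(DE3). Six replicate transformations were grown overnight at 37°C or 30°C on LB agar with or without 25 μg/mL kanamycin, plus 100 μg/mL carbenicillin, 50 μM IPTG and 0.2% rhamnose. Pooled colonies were amplicon-sequenced on an Illumina HiSeq 2500.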

With CCCGAGCAAUAUUACGAUAC, the “self-splicing fitness (ln)” value was -2.29 ± 0.27 (30 °C) and -1.57 ± 0.36 (37 °C). UAAUAGCAAUAUUACGCCAA: the “self-splicing fitness (ln)” value (37 °C) is -2.37 ± 0.26. Consider UCCAAGCAAUAUUACGAACU, for which the “self-splicing fitness (ln)” value runs as follows: (30 °C) -2.6 ± 0.15; (37 °C) -1.06 ± 0.15.

As for UUUCAGCAAUAUUACGGGUG, the “self-splicing fitness (ln)” value is, setting by setting: (30 °C) -0.316 ± 0.074; (37 °C) -0.441 ± 0.087.

Take UCCAAGCAAUAUUACGAUCG: the “self-splicing fitness (ln)” value by setting is: (30 °C) -2.65 ± 0.19; (37 °C) -3.06 ± 0.24. Regarding AGUAAGCAAUAUUACGGCCU, the “self-splicing fitness (ln)” value (30 °C) came out at 0.0223 ± 0.17 and the “self-splicing fitness (ln)” value (37 °C) is -0.034 ± 0.26. For the sequence CUACAGCAAUAUUACGUUAU, the “self-splicing fitness (ln)” value runs as follows: (30 °C) -3.96 ± 0.13; (37 °C) -2.79 ± 0.15. Regarding CACAAGCAAUAUUACGCUCU, the “self-splicing fitness (ln)” value runs as follows: (30 °C) -3.04 ± 0.24; (37 °C) -1.38 ± 0.17.

As for UUAGAGCAAUAUUACGUUGG, the “self-splicing fitness (ln)” value was -1.89 ± 0.1 (30 °C) and -1.59 ± 0.14 (37 °C). Take GUUGAGCAAUAUUACGAAUG: the “self-splicing fitness (ln)” value (37 °C) is -1.68 ± 0.44. In the case of CGAGAGCAAUAUUACGCGAG, the “self-splicing fitness (ln)” value is, setting by setting: (30 °C) -2.82 ± 0.19; (37 °C) -1.88 ± 0.22. Turning to UACCAGCAAUAUUACGCCAC, the “self-splicing fitness (ln)” value reads like this: (30 °C) -3.59 ± 0.2; (37 °C) -3.17 ± 0.37. On to CAGGAGCAAUAUUACGUUCU, for which the “self-splicing fitness (ln)” value was -4.15 ± 0.2 (30 °C) and -2.05 ± 0.14 (37 °C). The corresponding values for AUGAAGCAAUAUUACGGAGC are -3.69 ± 0.39 and -1.72 ± 0.2.

Take UCGGAGCAAUAUUACGUCAA: the “self-splicing fitness (ln)” value (37 °C) was -2.12 ± 0.38. On to AGAGAGCAAUAUUACGAGCG, for which, under “30 °C”, the “self-splicing fitness (ln)” value was -2.63 ± 0.3. On to CACCAGCAAUAUUACGUAAA, for which the “self-splicing fitness (ln)” value by setting is: (30 °C) -3.49 ± 0.15; (37 °C) -1.6 ± 0.11. Regarding CGUAAGCAAUAUUACGAUGA, the “self-splicing fitness (ln)” value (30 °C) is -3.44 ± 0.34.

Take GGAUAGCAAUAUUACGGAGU: the “self-splicing fitness (ln)” value reads like this: (30 °C) -2.95 ± 0.34; (37 °C) -2.16 ± 0.42. As for ACGGAGCAAUAUUACGAUAA, the “self-splicing fitness (ln)” value (30 °C) was -3.89 ± 0.23 and the “self-splicing fitness (ln)” value (37 °C) was -2.72 ± 0.21. CACCAGCAAUAUUACGGCAA: the “self-splicing fitness (ln)” value was -1.68 ± 0.099 (30 °C) and -0.956 ± 0.1 (37 °C).

UUCUAGCAAUAUUACGUUCU: the “self-splicing fitness (ln)” value by setting is: (30 °C) -3.79 ± 0.46; (37 °C) -1.26 ± 0.18. With UUCAAGCAAUAUUACGCUAA, the “self-splicing fitness (ln)” value reads like this: (30 °C) -1.35 ± 0.2; (37 °C) -0.551 ± 0.19. Regarding UCAAAGCAAUAUUACGCCUA, the “self-splicing fitness (ln)” value is -2.71 ± 0.2 (30 °C) and -0.722 ± 0.11 (37 °C).

For AGCCAGCAAUAUUACGUAGG, the “self-splicing fitness (ln)” value was -3.77 ± 0.2 (30 °C) and -3.33 ± 0.24 (37 °C).

Consider GCAAAGCAAUAUUACGUGGA, for which the “self-splicing fitness (ln)” value runs as follows: (30 °C) -2.07 ± 0.14; (37 °C) -2.36 ± 0.16. Consider GUCUAGCAAUAUUACGUGUU, for which the “self-splicing fitness (ln)” value (30 °C) is -1.61 ± 0.092 and the “self-splicing fitness (ln)” value (37 °C) is -0.352 ± 0.093. As for UAUCAGCAAUAUUACGGUUG, the “self-splicing fitness (ln)” value runs as follows: (30 °C) -0.952 ± 0.068; (37 °C) -0.113 ± 0.1. In the case of CAAUAGCAAUAUUACGACAC, the “self-splicing fitness (ln)” value by setting is: (30 °C) -3.61 ± 0.34; (37 °C) -1.88 ± 0.21. For GGUCAGCAAUAUUACGGUUU, the “self-splicing fitness (ln)” value (30 °C) was -0.421 ± 0.074 and the “self-splicing fitness (ln)” value (37 °C) came out at 0.264 ± 0.099. For UAUAAGCAAUAUUACGUGGA, the “self-splicing fitness (ln)” value (30 °C) is -2.08 ± 0.19 and the “self-splicing fitness (ln)” value (37 °C) was -1.71 ± 0.19.

In the case of AGACAGCAAUAUUACGCUUG, the “self-splicing fitness (ln)” value (30 °C) is -2.71 ± 0.13 and the “self-splicing fitness (ln)” value (37 °C) was -1 ± 0.12. Take CUACAGCAAUAUUACGAGAA: the “self-splicing fitness (ln)” value is, setting by setting: (30 °C) -2.84 ± 0.46; (37 °C) -1.92 ± 0.28. As for CACAAGCAAUAUUACGUUUC, the “self-splicing fitness (ln)” value (30 °C) was -3.53 ± 0.19 and the “self-splicing fitness (ln)” value (37 °C) was -1.8 ± 0.17. In the case of UCGUAGCAAUAUUACGAGUU, the “self-splicing fitness (ln)” value reads like this: (30 °C) -3.76 ± 0.25; (37 °C) -2.5 ± 0.2. Consider UGCCAGCAAUAUUACGCGGG, for which the “self-splicing fitness (ln)” value (30 °C) is -3.4 ± 0.2 and the “self-splicing fitness (ln)” value (37 °C) is -2.44 ± 0.22. Take AACUAGCAAUAUUACGCAGC: the “self-splicing fitness (ln)” value (30 °C) is -3.32 ± 0.25 and the “self-splicing fitness (ln)” value (37 °C) was -2.98 ± 0.43. For the sequence GGCAAGCAAUAUUACGGAUG, the “self-splicing fitness (ln)” value runs as follows: (30 °C) -2.34 ± 0.15; (37 °C) -0.798 ± 0.15. The corresponding values for GUAAAGCAAUAUUACGGAAA are -2.68 ± 0.14 and -1.38 ± 0.18.

Values taken from the supplement of paper PMC7877785.
